According to patent US20170101458A1:

Key:
[1] = biological target: wild type human low density lipoprotein receptor (hLDLR), isoform 1 (human) (UniProt P01130); test: cell-based or functional assay
[2] = biological target: hLDLR-K809R\C818A (human) (UniProt P01130); test: cell-based or functional assay

## human inducible degrader of LDLR (hIDOL) (from UniProt Q8WY64 1-445)
[1]
  percent LDL positive HEK293 cells, hLDLR co-transfected with hIDOL: 2 % of cells
[2]
  percent LDL positive HEK293 cells, hLDLR-K809R\C818A co-transfected with hIDOL: 14 % of cells
